Reference: patent publication US20220372155A1 (LYVGEN BIOPHARMA, published 2022)

B1: Ly625 (bispecific antibody, human IgG1, kappa)
heavy: EVQLVESGGGLVQPGGSLRLSCAASGFTFTDYTMDWVRQAPGKGLEWVADVNPNSGGSIYNQRFKGRFTLSVDRSKNTLYLQMNSLRAEDTAVYYCARNLGPSFYFDYWGQGTLVTVSSASTKGPSVFPLAPSSKSTSGGTAALGCLVKDYFPEPVTVSWNSGALTSGVHTFPAVLQSSGLYSLSSVVTVPSSSLGTQTYICNVNHKPSNTKVDKKVEPKSCDKTHTCPPCPAPELLGPSVFLFPPKPKDTLMISRTPEVTCVVVDVSHEDPEVKFNWYVDGVEVHNAKTKPREEQYNSTYRVVSVLTVLHQDWLNGKEYKCKVSNKALPAPIEKTISKAKGQPREPQVYTLPPSREEMTKNQVSLTCLVKGFYPSDIAVEWESNGQPENNYKTTPPVLDSDGSFFLYSKLTVDKSRWQQGNVFSCSVMHEALHNHYTQKSLSLSPGGGGGSGGGGSGGGGSGGGGSEVQLVESGGGLVQPGGSLRLSCAASGFTFTNYGLHWVRQAPGKGLEWVSSISPSGGVTYYRDSVKGRFTISRDNSKNTLYLQMNSLRAEDTAVYYCAKPFLGWGGANWIAHWGQGTLVTVSSGGGGSGGGGSGGGGSGGGGSDIQMTQSPSSLSASVGDRVTITCLASEDISNDLAWYQQKPGKAPKLLIYFVDRLLDGVPSRFSGSGSGTDFTLTISSLQPEDFATYYCQQSYKYPPTFGQGTKLEIK
light: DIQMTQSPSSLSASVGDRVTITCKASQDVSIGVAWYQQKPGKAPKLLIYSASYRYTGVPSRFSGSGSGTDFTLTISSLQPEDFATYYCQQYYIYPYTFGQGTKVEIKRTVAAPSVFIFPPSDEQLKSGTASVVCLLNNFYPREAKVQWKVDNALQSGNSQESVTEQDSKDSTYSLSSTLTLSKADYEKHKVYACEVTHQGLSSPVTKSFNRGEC
notes: Ly591 HC (IgG1 mutated Fc)-TM559 (printed TM599) scFv VH-VL + Ly591 LC
B2: Ly624 (bispecific antibody, human IgG1, kappa)
heavy: EVQLVESGGGLVQPGGSLRLSCAASGFTFTDYTMDWVRQAPGKGLEWVADVNPNSGGSIYNQRFKGRFTLSVDRSKNTLYLQMNSLRAEDTAVYYCARNLGPSFYFDYWGQGTLVTVSSASTKGPSVFPLAPSSKSTSGGTAALGCLVKDYFPEPVTVSWNSGALTSGVHTFPAVLQSSGLYSLSSVVTVPSSSLGTQTYICNVNHKPSNTKVDKKVEPKSCDKTHTCPPCPAPELLGPSVFLFPPKPKDTLMISRTPEVTCVVVDVSHEDPEVKFNWYVDGVEVHNAKTKPREEQYNSTYRVVSVLTVLHQDWLNGKEYKCKVSNKALPAPIEKTISKAKGQPREPQVYTLPPSREEMTKNQVSLTCLVKGFYPSDIAVEWESNGQPENNYKTTPPVLDSDGSFFLYSKLTVDKSRWQQGNVFSCSVMHEALHNHYTQKSLSLSPGGGGGSGGGGSGGGGSGGGGSDIQMTQSPSSLSASVGDRVTITCLASEDISNDLAWYQQKPGKAPKLLIYFVDRLLDGVPSRFSGSGSGTDFTLTISSLQPEDFATYYCQQSYKYPPTFGQGTKLEIKGGGGSGGGGSGGGGSGGGGSEVQLVESGGGLVQPGGSLRLSCAASGFTFTNYGLHWVRQAPGKGLEWVSSISPSGGVTYYRDSVKGRFTISRDNSKNTLYLQMNSLRAEDTAVYYCAKPFLGWGGANWIAHWGQGTLVTVSS
light: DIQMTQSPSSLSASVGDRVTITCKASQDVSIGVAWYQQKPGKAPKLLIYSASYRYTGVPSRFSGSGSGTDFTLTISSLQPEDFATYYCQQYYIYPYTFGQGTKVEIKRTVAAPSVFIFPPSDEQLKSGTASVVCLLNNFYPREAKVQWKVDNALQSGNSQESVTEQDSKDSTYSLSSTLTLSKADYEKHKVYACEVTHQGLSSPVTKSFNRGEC
notes: Ly591 HC (IgG1 mutated Fc)-TM559 (printed TM599) scFv VL-VH + Ly591 LC
B3: Ly623 (bispecific antibody, human IgG1, kappa)
heavy: EVQLVESGGGLVQPGGSLRLSCAASGFTFTDYTMDWVRQAPGKGLEWVADVNPNSGGSIYNQRFKGRFTLSVDRSKNTLYLQMNSLRAEDTAVYYCARNLGPSFYFDYWGQGTLVTVSSASTKGPSVFPLAPSSKSTSGGTAALGCLVKDYFPEPVTVSWNSGALTSGVHTFPAVLQSSGLYSLSSVVTVPSSSLGTQTYICNVNHKPSNTKVDKKVEPKSCDKTHTCPPCPAPELLGPSVFLFPPKPKDTLMISRTPEVTCVVVDVSHEDPEVKFNWYVDGVEVHNAKTKPREEQYNSTYRVVSVLTVLHQDWLNGKEYKCKVSNKALPAPIEKTISKAKGQPREPQVYTLPPSREEMTKNQVSLTCLVKGFYPSDIAVEWESNGQPENNYKTTPPVLDSDGSFFLYSKLTVDKSRWQQGNVFSCSVMHEALHNHYTQKSLSLSPGGGGGSGGGGSGGGGSGGGGSQVQLVESGGGLVQPGGSLKLSCATSGFNFNDYFMNWVRQASGKGLEWVGQIRNKNYNYATYYTESLEGRVTISRDDSKNTAYLQMNSLKTEDTAVYYCTSYYYDGFADYFDYWGQGTTVTVSSGGGGSGGGGSGGGGSGGGGSDIQMTQSPSSLSASVGDRVTITCKASQNIYIYLNWYQQKPGKAPKLLIYNTNNLQTGVPSRFSGSGSGTDFTLTISSLQPEDFATYYCLQHSSRRTFGGGTKVEIK
light: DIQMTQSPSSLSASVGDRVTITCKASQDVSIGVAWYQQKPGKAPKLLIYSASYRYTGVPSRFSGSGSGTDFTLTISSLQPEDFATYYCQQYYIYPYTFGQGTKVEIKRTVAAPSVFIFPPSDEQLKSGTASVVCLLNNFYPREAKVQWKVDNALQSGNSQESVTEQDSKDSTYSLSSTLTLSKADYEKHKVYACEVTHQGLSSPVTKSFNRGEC
notes: Ly591 HC (IgG1 mutated Fc)-TM740 scFv VH-VL + Ly591 LC
B4: Ly816 (bispecific antibody, human IgG1, kappa)
heavy: QVQLQQPGAELVKPGASVKLSCKASGYTFTSYWMHWVKQRPGQGLEWIGMIHPNSGGTNYNEKFKGKGTLTVDKSSSTAYMQLSSLTSDDSAVYYCVTSQATWFAYWGQGTLVTVSAASTKGPSVFPLAPSSKSTSGGTAALGCLVKDYFPEPVTVSWNSGALTSGVHTFPAVLQSSGLYSLSSVVTVPSSSLGTQTYICNVNHKPSNTKVDKKVEPKSCDKTHTCPPCPAPELLGPSVFLFPPKPKDTLMISRTPEVTCVVVDVSHEDPEVKFNWYVDGVEVHNAKTKPREEQYNSTYRVVSVLTVLHQDWLNGKEYKCKVSNKALPAPIEKTISKAKGQPREPQVYTLPPSREEMTKNQVSLTCLVKGFYPSDIAVEWESNGQPENNYKTTPPVLDSDGSFFLYSKLTVDKSRWQQGNVFSCSVMHEALHNHYTQKSLSLSPG
light: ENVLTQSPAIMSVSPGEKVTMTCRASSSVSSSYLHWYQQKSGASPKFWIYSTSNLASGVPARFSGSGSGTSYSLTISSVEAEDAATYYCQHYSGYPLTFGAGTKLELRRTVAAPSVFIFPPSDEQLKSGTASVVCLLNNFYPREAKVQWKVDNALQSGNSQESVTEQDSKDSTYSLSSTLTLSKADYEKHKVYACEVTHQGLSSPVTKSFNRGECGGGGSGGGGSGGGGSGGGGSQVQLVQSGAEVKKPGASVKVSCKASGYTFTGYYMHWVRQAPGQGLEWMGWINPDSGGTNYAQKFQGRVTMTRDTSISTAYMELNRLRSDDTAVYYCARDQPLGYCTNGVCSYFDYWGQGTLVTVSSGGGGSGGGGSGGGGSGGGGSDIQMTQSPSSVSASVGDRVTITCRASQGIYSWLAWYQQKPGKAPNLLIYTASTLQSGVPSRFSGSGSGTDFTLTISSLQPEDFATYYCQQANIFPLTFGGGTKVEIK
notes: Ly387 HC (IgG1 mutated Fc) + Ly387 LC-Ly253 scFv VH-VL
B5: Ly622 (bispecific antibody, human IgG1, kappa)
heavy: EVQLVESGGGLVQPGGSLRLSCAASGFTFTDYTMDWVRQAPGKGLEWVADVNPNSGGSIYNQRFKGRFTLSVDRSKNTLYLQMNSLRAEDTAVYYCARNLGPSFYFDYWGQGTLVTVSSASTKGPSVFPLAPSSKSTSGGTAALGCLVKDYFPEPVTVSWNSGALTSGVHTFPAVLQSSGLYSLSSVVTVPSSSLGTQTYICNVNHKPSNTKVDKKVEPKSCDKTHTCPPCPAPELLGPSVFLFPPKPKDTLMISRTPEVTCVVVDVSHEDPEVKFNWYVDGVEVHNAKTKPREEQYNSTYRVVSVLTVLHQDWLNGKEYKCKVSNKALPAPIEKTISKAKGQPREPQVYTLPPSREEMTKNQVSLTCLVKGFYPSDIAVEWESNGQPENNYKTTPPVLDSDGSFFLYSKLTVDKSRWQQGNVFSCSVMHEALHNHYTQKSLSLSPGGGGGSGGGGSGGGGSGGGGSDIQMTQSPSSLSASVGDRVTITCKASQNIYIYLNWYQQKPGKAPKLLIYNTNNLQTGVPSRFSGSGSGTDFTLTISSLQPEDFATYYCLQHSSRRTFGGGTKVEIKGGGGSGGGGSGGGGSGGGGSQVQLVESGGGLVQPGGSLKLSCATSGFNFNDYFMNWVRQASGKGLEWVGQIRNKNYNYATYYTESLEGRVTISRDDSKNTAYLQMNSLKTEDTAVYYCTSYYYDGFADYFDYWGQGTTVTVSS
light: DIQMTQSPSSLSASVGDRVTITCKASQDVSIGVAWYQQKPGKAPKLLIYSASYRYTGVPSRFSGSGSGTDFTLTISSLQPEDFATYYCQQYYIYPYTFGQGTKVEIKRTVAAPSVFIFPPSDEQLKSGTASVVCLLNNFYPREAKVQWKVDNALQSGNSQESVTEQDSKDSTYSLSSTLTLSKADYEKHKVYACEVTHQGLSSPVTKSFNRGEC
notes: Ly591 HC (IgG1 mutated Fc)-TM740 scFv VL-VH + Ly591 LC
B6: Ly825 (bispecific antibody, human IgG1, kappa)
heavy: EVQLVESGGGLVQPGGSLRLSCAASGFTFTDYTMDWVRQAPGKGLEWVADVNPNSGGSIYNQRFKGRFTLSVDRSKNTLYLQMNSLRAEDTAVYYCARNLGPSFYFDYWGQGTLVTVSSASTKGPSVFPLAPSSKSTSGGTAALGCLVKDYFPEPVTVSWNSGALTSGVHTFPAVLQSSGLYSLSSVVTVPSSSLGTQTYICNVNHKPSNTKVDKKVEPKSCDKTHTCPPCPAPELLGPSVFLFPPKPKDTLMISRTPEVTCVVVDVSHEDPEVKFNWYVDGVEVHNAKTKPREEQYNSTYRVVSVLTVLHQDWLNGKEYKCKVSNKALPAPIEKTISKAKGQPREPQVYTLPPSREEMTKNQVSLTCLVKGFYPSDIAVEWESNGQPENNYKTTPPVLDSDGSFFLYSKLTVDKSRWQQGNVFSCSVMHEALHNHYTQKSLSLSPG
light: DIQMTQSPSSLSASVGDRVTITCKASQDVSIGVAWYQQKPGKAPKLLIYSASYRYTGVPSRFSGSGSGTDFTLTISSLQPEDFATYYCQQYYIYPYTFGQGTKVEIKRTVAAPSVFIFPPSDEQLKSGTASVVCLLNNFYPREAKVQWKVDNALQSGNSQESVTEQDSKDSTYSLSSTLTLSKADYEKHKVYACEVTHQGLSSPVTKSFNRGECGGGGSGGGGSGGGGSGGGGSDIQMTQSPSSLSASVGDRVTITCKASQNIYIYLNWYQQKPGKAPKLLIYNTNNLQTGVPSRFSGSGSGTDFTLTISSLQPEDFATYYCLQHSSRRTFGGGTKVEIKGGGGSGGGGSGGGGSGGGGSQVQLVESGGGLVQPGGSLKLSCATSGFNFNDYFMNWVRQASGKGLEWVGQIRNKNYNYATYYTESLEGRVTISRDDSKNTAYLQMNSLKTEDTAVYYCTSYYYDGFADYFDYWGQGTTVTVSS
notes: Ly591 HC (IgG1 mutated Fc) + Ly591 LC-TM740 scFv VL-VH
B7: Ly828 (bispecific antibody, human IgG1, kappa)
heavy: B6 heavy
light: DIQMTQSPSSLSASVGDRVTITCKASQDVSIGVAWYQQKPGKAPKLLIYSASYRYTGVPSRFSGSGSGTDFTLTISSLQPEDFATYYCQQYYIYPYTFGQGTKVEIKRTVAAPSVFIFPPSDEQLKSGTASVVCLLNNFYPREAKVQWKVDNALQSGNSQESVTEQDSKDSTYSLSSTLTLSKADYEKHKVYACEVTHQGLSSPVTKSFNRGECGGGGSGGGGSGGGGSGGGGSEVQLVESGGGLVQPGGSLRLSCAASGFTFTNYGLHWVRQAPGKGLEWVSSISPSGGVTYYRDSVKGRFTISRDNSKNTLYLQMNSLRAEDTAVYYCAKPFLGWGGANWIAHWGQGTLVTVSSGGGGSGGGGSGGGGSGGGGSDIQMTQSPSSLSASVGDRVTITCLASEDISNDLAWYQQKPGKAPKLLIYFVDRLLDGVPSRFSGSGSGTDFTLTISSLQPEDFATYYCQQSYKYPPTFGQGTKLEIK
notes: Ly591 HC (IgG1 mutated Fc) + Ly591 LC-TM559 scFv VH-VL
B8: Ly835 (bispecific antibody, human IgG1, kappa)
heavy: B6 heavy
light: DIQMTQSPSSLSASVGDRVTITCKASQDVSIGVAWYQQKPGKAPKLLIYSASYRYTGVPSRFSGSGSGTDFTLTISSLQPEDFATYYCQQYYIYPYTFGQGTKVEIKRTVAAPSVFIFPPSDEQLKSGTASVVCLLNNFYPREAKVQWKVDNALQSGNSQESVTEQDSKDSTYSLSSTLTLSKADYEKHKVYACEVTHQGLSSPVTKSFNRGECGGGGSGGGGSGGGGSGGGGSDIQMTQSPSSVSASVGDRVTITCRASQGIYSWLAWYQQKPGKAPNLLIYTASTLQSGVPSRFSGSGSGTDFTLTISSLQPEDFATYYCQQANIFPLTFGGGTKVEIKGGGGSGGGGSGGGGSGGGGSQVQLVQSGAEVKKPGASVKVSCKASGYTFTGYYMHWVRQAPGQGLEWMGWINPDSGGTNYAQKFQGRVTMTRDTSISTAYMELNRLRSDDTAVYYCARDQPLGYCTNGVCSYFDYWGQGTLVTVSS
notes: Ly591 HC (IgG1 mutated Fc) + Ly591 LC-Ly253 scFv VL-VH
B9: Ly826 (bispecific antibody, human IgG1, kappa)
heavy: B6 heavy
light: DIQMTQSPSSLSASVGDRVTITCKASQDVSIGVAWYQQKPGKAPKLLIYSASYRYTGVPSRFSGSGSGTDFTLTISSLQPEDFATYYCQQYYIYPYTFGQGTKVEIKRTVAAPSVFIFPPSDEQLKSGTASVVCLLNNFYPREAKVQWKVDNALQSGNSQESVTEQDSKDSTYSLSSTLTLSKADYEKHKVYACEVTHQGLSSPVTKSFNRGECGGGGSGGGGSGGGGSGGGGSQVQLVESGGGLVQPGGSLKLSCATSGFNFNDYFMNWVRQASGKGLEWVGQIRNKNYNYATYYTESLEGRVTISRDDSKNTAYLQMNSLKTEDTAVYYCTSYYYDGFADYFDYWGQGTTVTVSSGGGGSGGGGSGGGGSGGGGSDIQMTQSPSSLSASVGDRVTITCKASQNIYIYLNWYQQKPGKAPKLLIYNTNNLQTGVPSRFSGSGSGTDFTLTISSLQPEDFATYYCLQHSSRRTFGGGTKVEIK
notes: Ly591 HC (IgG1 mutated Fc) + Ly591 LC-TM740 scFv VH-VL
B10: Ly827 (bispecific antibody, human IgG1, kappa)
heavy: B6 heavy
light: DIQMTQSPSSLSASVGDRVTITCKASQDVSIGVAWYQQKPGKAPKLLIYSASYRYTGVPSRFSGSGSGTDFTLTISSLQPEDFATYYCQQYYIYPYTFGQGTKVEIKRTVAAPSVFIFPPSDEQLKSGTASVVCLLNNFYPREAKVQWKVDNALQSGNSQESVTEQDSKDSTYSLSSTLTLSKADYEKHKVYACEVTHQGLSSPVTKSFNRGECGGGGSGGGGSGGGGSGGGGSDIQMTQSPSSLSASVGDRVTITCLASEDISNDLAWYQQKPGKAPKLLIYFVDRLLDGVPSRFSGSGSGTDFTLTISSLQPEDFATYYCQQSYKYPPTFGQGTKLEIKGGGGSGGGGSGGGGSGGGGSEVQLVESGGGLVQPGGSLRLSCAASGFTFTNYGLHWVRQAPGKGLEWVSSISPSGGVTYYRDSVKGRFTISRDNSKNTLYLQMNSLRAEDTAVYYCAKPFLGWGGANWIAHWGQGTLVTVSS
notes: Ly591 HC (IgG1 mutated Fc) + Ly591 LC-TM559 scFv VL-VH
B11: Ly836 (bispecific antibody, human IgG1, kappa)
heavy: B6 heavy
light: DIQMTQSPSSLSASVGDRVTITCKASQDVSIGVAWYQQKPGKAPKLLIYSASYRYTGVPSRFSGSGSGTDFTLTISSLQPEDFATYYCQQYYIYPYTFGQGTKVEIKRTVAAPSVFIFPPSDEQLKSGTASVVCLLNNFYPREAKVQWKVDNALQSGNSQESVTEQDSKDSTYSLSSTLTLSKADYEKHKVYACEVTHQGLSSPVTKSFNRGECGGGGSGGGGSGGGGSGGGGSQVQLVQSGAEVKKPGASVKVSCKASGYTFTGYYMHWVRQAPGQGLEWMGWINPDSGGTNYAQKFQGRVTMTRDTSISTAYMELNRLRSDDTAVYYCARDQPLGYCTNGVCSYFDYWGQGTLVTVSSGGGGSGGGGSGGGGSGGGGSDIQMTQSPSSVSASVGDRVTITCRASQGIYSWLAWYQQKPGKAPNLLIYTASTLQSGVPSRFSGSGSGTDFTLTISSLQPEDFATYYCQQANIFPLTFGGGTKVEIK
notes: Ly591 HC (IgG1 mutated Fc) + Ly591 LC-Ly253 scFv VH-VL

The binders below were run against T1, human CD40 expressed on CHO cells (human, UniProt P25942 21-277) (assay: FACS, CHO cells).
T1 construct: whole, on cells; also used for the reporter cells over-expressing human CD40; also called cellular CD40; CHO-CD40 cells
T1 sequence (P25942 21-277): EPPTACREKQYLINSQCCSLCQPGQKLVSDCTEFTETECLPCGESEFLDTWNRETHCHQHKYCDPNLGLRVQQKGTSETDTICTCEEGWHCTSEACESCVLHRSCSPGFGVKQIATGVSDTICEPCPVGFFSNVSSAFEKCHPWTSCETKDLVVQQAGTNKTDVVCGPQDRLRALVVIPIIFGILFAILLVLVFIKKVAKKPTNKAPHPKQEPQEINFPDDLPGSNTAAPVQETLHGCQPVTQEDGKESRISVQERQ

Question: Does B1 bind?
Answer: Result: binds

Question: Does B2 bind?
Answer: Result: binds

Question: Does B3 bind?
Answer: Result: binds

Question: Does B4 bind?
Answer: Result: binds

Question: Does B5 bind?
Answer: Result: binds

Question: Does B6 bind?
Answer: Result: binds

Question: Does B7 bind?
Answer: Result: binds

Question: Does B8 bind?
Answer: Result: binds

Question: Does B9 bind?
Answer: Result: binds

Question: Does B10 bind?
Answer: Result: binds

Question: Does B11 bind?
Answer: Result: binds
